Measured values as given in the Human Domainome abundance scans (Beltran et al. 2025).
± gives the uncertainty stated by the source.

B1: Ankyrin-2, residues 3571 to 3650; numbered along this chain, Q01484 (parent)
chain: ERLAYIADHLGFSWTELARELDFTEEQIHQIRIENPNSLQDQSHALLKYWLERDGKHATDTNLVECLTKINRMDIVHLME

Variants of: B1
Assay: abundance fitness (aPCA) (normalised: wild type 0, dead -1); higher = more abundant; growth selection in yeast, the domain comes from the species named
Conditions: Homo sapiens

Variant | abundance fitness
ERLAYIAEHLGFSWTELARELDFTEEQIHQIRIENPNSLQDQSHALLKYWLERDGKHATDTNLVECLTKINRMDIVHLME [D8E] | -0.075 ± 0.46
ERLAYIAAHLGFSWTELARELDFTEEQIHQIRIENPNSLQDQSHALLKYWLERDGKHATDTNLVECLTKINRMDIVHLME [D8A] | 0.034 ± 0.18
ERLKYIADHLGFSWTELARELDFTEEQIHQIRIENPNSLQDQSHALLKYWLERDGKHATDTNLVECLTKINRMDIVHLME [A4K] | -0.029 ± 0.08
ERLGYIADHLGFSWTELARELDFTEEQIHQIRIENPNSLQDQSHALLKYWLERDGKHATDTNLVECLTKINRMDIVHLME [A4G] | 0.052 ± 0.035
ERLFYIADHLGFSWTELARELDFTEEQIHQIRIENPNSLQDQSHALLKYWLERDGKHATDTNLVECLTKINRMDIVHLME [A4F] | 0.129 ± 0.068
ERLTYIADHLGFSWTELARELDFTEEQIHQIRIENPNSLQDQSHALLKYWLERDGKHATDTNLVECLTKINRMDIVHLME [A4T] | 0.109 ± 0.048
ERLEYIADHLGFSWTELARELDFTEEQIHQIRIENPNSLQDQSHALLKYWLERDGKHATDTNLVECLTKINRMDIVHLME [A4E] | -0.017 ± 0.054
ERLWYIADHLGFSWTELARELDFTEEQIHQIRIENPNSLQDQSHALLKYWLERDGKHATDTNLVECLTKINRMDIVHLME [A4W] | -0.11 ± 0.061
ERLYYIADHLGFSWTELARELDFTEEQIHQIRIENPNSLQDQSHALLKYWLERDGKHATDTNLVECLTKINRMDIVHLME [A4Y] | -0.075 ± 0.1
ERLHYIADHLGFSWTELARELDFTEEQIHQIRIENPNSLQDQSHALLKYWLERDGKHATDTNLVECLTKINRMDIVHLME [A4H] | 0.016 ± 0.067
ERLNYIADHLGFSWTELARELDFTEEQIHQIRIENPNSLQDQSHALLKYWLERDGKHATDTNLVECLTKINRMDIVHLME [A4N] | -0.024 ± 0.11
ERLRYIADHLGFSWTELARELDFTEEQIHQIRIENPNSLQDQSHALLKYWLERDGKHATDTNLVECLTKINRMDIVHLME [A4R] | -0.007 ± 0.043
ERLLYIADHLGFSWTELARELDFTEEQIHQIRIENPNSLQDQSHALLKYWLERDGKHATDTNLVECLTKINRMDIVHLME [A4L] | -0.058 ± 0.04
ERLMYIADHLGFSWTELARELDFTEEQIHQIRIENPNSLQDQSHALLKYWLERDGKHATDTNLVECLTKINRMDIVHLME [A4M] | 0.004 ± 0.078
ERLDYIADHLGFSWTELARELDFTEEQIHQIRIENPNSLQDQSHALLKYWLERDGKHATDTNLVECLTKINRMDIVHLME [A4D] | 0.039 ± 0.084
ERLPYIADHLGFSWTELARELDFTEEQIHQIRIENPNSLQDQSHALLKYWLERDGKHATDTNLVECLTKINRMDIVHLME [A4P] | -0.071 ± 0.029
ERLAYIRDHLGFSWTELARELDFTEEQIHQIRIENPNSLQDQSHALLKYWLERDGKHATDTNLVECLTKINRMDIVHLME [A7R] | 0.087 ± 0.48
ERLAYIGDHLGFSWTELARELDFTEEQIHQIRIENPNSLQDQSHALLKYWLERDGKHATDTNLVECLTKINRMDIVHLME [A7G] | 0.12 ± 0.28
ERLAYIPDHLGFSWTELARELDFTEEQIHQIRIENPNSLQDQSHALLKYWLERDGKHATDTNLVECLTKINRMDIVHLME [A7P] | -0.36 ± 0.18
ERLAYIEDHLGFSWTELARELDFTEEQIHQIRIENPNSLQDQSHALLKYWLERDGKHATDTNLVECLTKINRMDIVHLME [A7E] | -0.265 ± 0.21
ERLAYILDHLGFSWTELARELDFTEEQIHQIRIENPNSLQDQSHALLKYWLERDGKHATDTNLVECLTKINRMDIVHLME [A7L] | -0.008 ± 0.11
ERLAYIQDHLGFSWTELARELDFTEEQIHQIRIENPNSLQDQSHALLKYWLERDGKHATDTNLVECLTKINRMDIVHLME [A7Q] | -0.089 ± 0.35
ERLAYIKDHLGFSWTELARELDFTEEQIHQIRIENPNSLQDQSHALLKYWLERDGKHATDTNLVECLTKINRMDIVHLME [A7K] | -0.041 ± 0.25

Variant | abundance fitness
ERLAYIMDHLGFSWTELARELDFTEEQIHQIRIENPNSLQDQSHALLKYWLERDGKHATDTNLVECLTKINRMDIVHLME [A7M] | -0.045 ± 0.25
ERLAYITDHLGFSWTELARELDFTEEQIHQIRIENPNSLQDQSHALLKYWLERDGKHATDTNLVECLTKINRMDIVHLME [A7T] | 0.029 ± 0.15
ERLAYISDHLGFSWTELARELDFTEEQIHQIRIENPNSLQDQSHALLKYWLERDGKHATDTNLVECLTKINRMDIVHLME [A7S] | 0.052 ± 0.33
ERLAYIWDHLGFSWTELARELDFTEEQIHQIRIENPNSLQDQSHALLKYWLERDGKHATDTNLVECLTKINRMDIVHLME [A7W] | -0.053 ± 0.24
EWLAYIADHLGFSWTELARELDFTEEQIHQIRIENPNSLQDQSHALLKYWLERDGKHATDTNLVECLTKINRMDIVHLME [R2W] | 0.056 ± 0.24
EDLAYIADHLGFSWTELARELDFTEEQIHQIRIENPNSLQDQSHALLKYWLERDGKHATDTNLVECLTKINRMDIVHLME [R2D] | 0.107 ± 0.35
EPLAYIADHLGFSWTELARELDFTEEQIHQIRIENPNSLQDQSHALLKYWLERDGKHATDTNLVECLTKINRMDIVHLME [R2P] | -0.454 ± 0.39
EGLAYIADHLGFSWTELARELDFTEEQIHQIRIENPNSLQDQSHALLKYWLERDGKHATDTNLVECLTKINRMDIVHLME [R2G] | -0.208 ± 0.34
EVLAYIADHLGFSWTELARELDFTEEQIHQIRIENPNSLQDQSHALLKYWLERDGKHATDTNLVECLTKINRMDIVHLME [R2V] | 0.024 ± 0.23
ESLAYIADHLGFSWTELARELDFTEEQIHQIRIENPNSLQDQSHALLKYWLERDGKHATDTNLVECLTKINRMDIVHLME [R2S] | 0.026 ± 0.17
ERLAWIADHLGFSWTELARELDFTEEQIHQIRIENPNSLQDQSHALLKYWLERDGKHATDTNLVECLTKINRMDIVHLME [Y5W] | -0.143 ± 0.26
ERLAPIADHLGFSWTELARELDFTEEQIHQIRIENPNSLQDQSHALLKYWLERDGKHATDTNLVECLTKINRMDIVHLME [Y5P] | -0.019 ± 0.17
ERLAVIADHLGFSWTELARELDFTEEQIHQIRIENPNSLQDQSHALLKYWLERDGKHATDTNLVECLTKINRMDIVHLME [Y5V] | -0.084 ± 0.19
ERLALIADHLGFSWTELARELDFTEEQIHQIRIENPNSLQDQSHALLKYWLERDGKHATDTNLVECLTKINRMDIVHLME [Y5L] | 0.096 ± 0.29
ERLAGIADHLGFSWTELARELDFTEEQIHQIRIENPNSLQDQSHALLKYWLERDGKHATDTNLVECLTKINRMDIVHLME [Y5G] | -0.231 ± 0.45
ERLAHIADHLGFSWTELARELDFTEEQIHQIRIENPNSLQDQSHALLKYWLERDGKHATDTNLVECLTKINRMDIVHLME [Y5H] | 0.013 ± 0.28
ERLARIADHLGFSWTELARELDFTEEQIHQIRIENPNSLQDQSHALLKYWLERDGKHATDTNLVECLTKINRMDIVHLME [Y5R] | -0.505 ± 0.32
ERLAMIADHLGFSWTELARELDFTEEQIHQIRIENPNSLQDQSHALLKYWLERDGKHATDTNLVECLTKINRMDIVHLME [Y5M] | -0.559 ± 0.43
ERLANIADHLGFSWTELARELDFTEEQIHQIRIENPNSLQDQSHALLKYWLERDGKHATDTNLVECLTKINRMDIVHLME [Y5N] | 0.386 ± 0.43
ERLAAIADHLGFSWTELARELDFTEEQIHQIRIENPNSLQDQSHALLKYWLERDGKHATDTNLVECLTKINRMDIVHLME [Y5A] | 0.066 ± 0.14
ERLACIADHLGFSWTELARELDFTEEQIHQIRIENPNSLQDQSHALLKYWLERDGKHATDTNLVECLTKINRMDIVHLME [Y5C] | 0.137 ± 0.17
ERQAYIADHLGFSWTELARELDFTEEQIHQIRIENPNSLQDQSHALLKYWLERDGKHATDTNLVECLTKINRMDIVHLME [L3Q] | -0.031 ± 0.076
ERGAYIADHLGFSWTELARELDFTEEQIHQIRIENPNSLQDQSHALLKYWLERDGKHATDTNLVECLTKINRMDIVHLME [L3G] | -0.181 ± 0.11

Variant | abundance fitness
ERKAYIADHLGFSWTELARELDFTEEQIHQIRIENPNSLQDQSHALLKYWLERDGKHATDTNLVECLTKINRMDIVHLME [L3K] | -0.179 ± 0.11
EREAYIADHLGFSWTELARELDFTEEQIHQIRIENPNSLQDQSHALLKYWLERDGKHATDTNLVECLTKINRMDIVHLME [L3E] | -0.289 ± 0.23
ERRAYIADHLGFSWTELARELDFTEEQIHQIRIENPNSLQDQSHALLKYWLERDGKHATDTNLVECLTKINRMDIVHLME [L3R] | -0.077 ± 0.051
ERCAYIADHLGFSWTELARELDFTEEQIHQIRIENPNSLQDQSHALLKYWLERDGKHATDTNLVECLTKINRMDIVHLME [L3C] | -0.086 ± 0.22
ERPAYIADHLGFSWTELARELDFTEEQIHQIRIENPNSLQDQSHALLKYWLERDGKHATDTNLVECLTKINRMDIVHLME [L3P] | -0.215 ± 0.064
ERYAYIADHLGFSWTELARELDFTEEQIHQIRIENPNSLQDQSHALLKYWLERDGKHATDTNLVECLTKINRMDIVHLME [L3Y] | -0.155 ± 0.2
ERWAYIADHLGFSWTELARELDFTEEQIHQIRIENPNSLQDQSHALLKYWLERDGKHATDTNLVECLTKINRMDIVHLME [L3W] | -0.117 ± 0.05
ERHAYIADHLGFSWTELARELDFTEEQIHQIRIENPNSLQDQSHALLKYWLERDGKHATDTNLVECLTKINRMDIVHLME [L3H] | -0.038 ± 0.13
ERNAYIADHLGFSWTELARELDFTEEQIHQIRIENPNSLQDQSHALLKYWLERDGKHATDTNLVECLTKINRMDIVHLME [L3N] | -0.074 ± 0.26
ERTAYIADHLGFSWTELARELDFTEEQIHQIRIENPNSLQDQSHALLKYWLERDGKHATDTNLVECLTKINRMDIVHLME [L3T] | -0.019 ± 0.075
ERVAYIADHLGFSWTELARELDFTEEQIHQIRIENPNSLQDQSHALLKYWLERDGKHATDTNLVECLTKINRMDIVHLME [L3V] | 0.005 ± 0.089
ERFAYIADHLGFSWTELARELDFTEEQIHQIRIENPNSLQDQSHALLKYWLERDGKHATDTNLVECLTKINRMDIVHLME [L3F] | 0.143 ± 0.075
ERIAYIADHLGFSWTELARELDFTEEQIHQIRIENPNSLQDQSHALLKYWLERDGKHATDTNLVECLTKINRMDIVHLME [L3I] | 0.05 ± 0.24
ERMAYIADHLGFSWTELARELDFTEEQIHQIRIENPNSLQDQSHALLKYWLERDGKHATDTNLVECLTKINRMDIVHLME [L3M] | 0.028 ± 0.095
ERAAYIADHLGFSWTELARELDFTEEQIHQIRIENPNSLQDQSHALLKYWLERDGKHATDTNLVECLTKINRMDIVHLME [L3A] | -0.164 ± 0.065
ERSAYIADHLGFSWTELARELDFTEEQIHQIRIENPNSLQDQSHALLKYWLERDGKHATDTNLVECLTKINRMDIVHLME [L3S] | 0.043 ± 0.069
ERLAYNADHLGFSWTELARELDFTEEQIHQIRIENPNSLQDQSHALLKYWLERDGKHATDTNLVECLTKINRMDIVHLME [I6N] | -0.6 ± 0.24
ERLAYVADHLGFSWTELARELDFTEEQIHQIRIENPNSLQDQSHALLKYWLERDGKHATDTNLVECLTKINRMDIVHLME [I6V] | -0.126 ± 0.46
ERLAYRADHLGFSWTELARELDFTEEQIHQIRIENPNSLQDQSHALLKYWLERDGKHATDTNLVECLTKINRMDIVHLME [I6R] | -0.717 ± 0.26
ERLAYWADHLGFSWTELARELDFTEEQIHQIRIENPNSLQDQSHALLKYWLERDGKHATDTNLVECLTKINRMDIVHLME [I6W] | -0.485 ± 0.22
ERLAYKADHLGFSWTELARELDFTEEQIHQIRIENPNSLQDQSHALLKYWLERDGKHATDTNLVECLTKINRMDIVHLME [I6K] | -0.807 ± 0.45
ERLAYPADHLGFSWTELARELDFTEEQIHQIRIENPNSLQDQSHALLKYWLERDGKHATDTNLVECLTKINRMDIVHLME [I6P] | -0.412 ± 0.16
ERLAYSADHLGFSWTELARELDFTEEQIHQIRIENPNSLQDQSHALLKYWLERDGKHATDTNLVECLTKINRMDIVHLME [I6S] | -0.642 ± 0.23
